Holding throughout (conditions): both partners purified
In one test the target is microtubules (UniProt P02550 1-451, alpha/beta-tubulin heterodimer polymerised into paclitaxel-stabilised microtubules, GTP in the buffer. Source and isotypes not given); porcine brain tubulin (a natural isotype mixture with native mod). The test is described as follows: co-sedimentation; YFP fluorescence of pellet and supernatant; 100 mM PIPES pH 6.8, 2 mM MgCl2, 1 mM EGTA, 20 µM paclitaxel, 1 mM GTP; 20,000 g, 30 min, 30 °C; hyperbolic fit.
Chain of microtubules (P02550 whole entry, chain 1 of 2): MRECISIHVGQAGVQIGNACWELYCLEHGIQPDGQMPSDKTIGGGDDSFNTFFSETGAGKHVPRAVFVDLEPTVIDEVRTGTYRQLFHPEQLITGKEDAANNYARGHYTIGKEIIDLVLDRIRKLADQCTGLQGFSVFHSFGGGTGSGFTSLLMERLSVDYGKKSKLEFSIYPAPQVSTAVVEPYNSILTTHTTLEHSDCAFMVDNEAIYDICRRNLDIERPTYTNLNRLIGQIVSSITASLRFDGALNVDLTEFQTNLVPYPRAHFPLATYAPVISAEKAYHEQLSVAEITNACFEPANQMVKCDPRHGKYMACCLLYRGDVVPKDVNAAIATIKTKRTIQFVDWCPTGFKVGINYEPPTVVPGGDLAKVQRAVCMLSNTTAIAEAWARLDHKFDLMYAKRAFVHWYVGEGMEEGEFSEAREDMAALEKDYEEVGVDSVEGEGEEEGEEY
Chain of microtubules (P02554 whole entry, chain 2 of 2, further chain): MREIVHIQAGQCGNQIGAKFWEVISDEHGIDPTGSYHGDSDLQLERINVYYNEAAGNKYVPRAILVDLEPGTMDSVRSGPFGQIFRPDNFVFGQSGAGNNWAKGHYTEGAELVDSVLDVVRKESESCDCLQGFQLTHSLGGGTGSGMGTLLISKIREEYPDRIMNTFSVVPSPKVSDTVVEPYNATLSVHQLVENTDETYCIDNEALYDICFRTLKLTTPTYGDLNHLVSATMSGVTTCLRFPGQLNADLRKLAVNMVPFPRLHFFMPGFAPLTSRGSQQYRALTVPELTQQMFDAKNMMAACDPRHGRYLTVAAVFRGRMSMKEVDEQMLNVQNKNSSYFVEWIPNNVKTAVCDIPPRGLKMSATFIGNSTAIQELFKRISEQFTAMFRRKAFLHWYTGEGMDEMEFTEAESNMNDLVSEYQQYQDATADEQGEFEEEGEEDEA

Test [1] has as its target T1, F-actin (UniProt P68135 1-377). Nature of the test: co-sedimentation; YFP fluorescence of pellet and supernatant; increasing F-actin concentrations; 5 mM Tris pH 7.4, 100 mM KCl, 0.04% NaN3, 2 mM MgCl2; 20,000 g, 30 min, 4 °C.
Test [2] concerns the target T1, F-actin. The description is as above. The source holds these as a separate data set.

B1: myosin-1D tail-TH1 construct (aa 721–913) (domain or fragment, Dictyostelium discoideum, UniProt P34109 721-913, looked up)
chain: MKSNKERRRLSIERPYQGDYINYRENFELKDIVKKNGNEKIMFTHAVNKYDRRSRCQRRVLLLSDTAIYFIATEKNKDKEDRKKRPWIYVQKRRLLLAGITSVELSKLSDGFVVLKTMNEHDQIFECRRKTEFLGTLIKAYKTGTLRINYNNSIGVAIKASKQGGKGKERIILFEKGIKPGESVFKGTKVSTP
notes: Dictyostelium discoideum myosin-1D, TH1 domain only, aa 721-913; The methods describe cloning into pGEX-6P2 (GST only); the results call the construct YFP-tagged and the co-sedimentation detects YFP; S3; also called Myosin-1D-TH1; isolated TH1 domain; source: E. coli Rosetta pLys-S, purified (glutathione-Sepharose, size exclusion chromatography)
What is called Kd is the equilibrium constant for the complex coming apart. For B1, the dissociation constant Kd with microtubules is 3300 ± 200 nM.

B2: myosin-1C tail (domain or fragment)
chain: RYWHDMASRIKNAYRNYKAFQFECSNRIKNAFRNYKLYRQRCAQTIQGYFRAWKQASPFFDLRMQNEQLFQGRKERNRFSMISVRKYFGDYLDVRSQSYFLDAMAEGRNEDVIFSSKSQVMVHPILSANKLSPRFLIVTKQAIYLIKLKQKKNLATYLLDRRVPLAEVTSFSLSSLADNLLVIHTSTQFDVAVTTEFKTELVALINKQKGTTLAVNFGQSIQYFKKKGSNNTVTFLKDEMHKEIFLKKNQFHIASGLPASTTVAKVRKNPSQVSTPSKPIAKPVAKPMVAKPSGGSVIMKKPAPAAPPSGPPVMKKPAPTAPGGAPMMKKPAPAPGGAPMMKKPAPVPGGPAPGGSAIMKPAGGVSKPLPSPTGAPMMKKPAPTAPGGPAPAGAPTPMMKKPAGQPMMKPIAKPQPTPMKKPAAPPPQQYIALYEYDAMQPDELTFKENDVINLIKKVDADWWQGELVRTKQIGMLPSNYVQQI
notes: Dictyostelium discoideum myosin-1C, tail; S3; also called YFP-myosin-1 tail; source: E. coli Rosetta pLys-S, purified (glutathione-Sepharose, size exclusion chromatography)
For B2, the results for the Kd with F-actin [1] and with F-actin [2] were 900 ± 400 nM and 800 ± 80 nM, respectively.

B3: myosin-1B tail (amino acids 717–1111) (domain or fragment, Dictyostelium discoideum, UniProt P34092 717-1111, looked up)
chain: QRAQIAHMFKDKKERQRNSIDRKFTSDYIDFENQFGLQEAMQNAHKKERVVFADTVIKIDRRAKQKNYEMVLTDQALYFVEKSIKKKVLVHTLIRRVGLREIKGVSISTLSDNVIVFHLPEHDQVIENDKKTEIIIVLVEYFKAIGGGSLNVQFSDRINYTLKKGEQKEISFQKSEQCPTLVVKKGGKGLIGTIASGLPSSTDSTPKNYNPNSMSQASSRPAPQQSAGRGRGMPQGAGQPQPQQPQQQQRPMPQPQQGGGARPMPQPQQGGGARPMGAPQQGGAPQQGAGRQLPQPTQQGGAPGGRGAPMGRGAPGGGPAGAGGRPLPTVAKPAPQPSRPTAKALYDYDASSTDELSFKEGDIIFIVQKDNGGWTQGELKSGQKGWAPTNYLQYN
notes: Dictyostelium discoideum myosin-1B, tail, amino acids 717-1111 (NCBI XM_631290.1); Cloned both into pGEX-6P2 (GST only) and pGEX-6P2-eYFP-mcs (GST and YFP); the actin and microtubule assays detect YFP; S3; also called YFP-myosin-1 tail; source: E. coli Rosetta pLys-S, purified (glutathione-Sepharose, size exclusion chromatography); not shown: YFP, C-terminal, kept
In the case of B3, the results for the dissociation constant Kd with microtubules and in the test with F-actin [2] were 900 ± 100 nM and 6800 ± 200 nM, respectively.
